In patent US20190233475A1 (Bicycle, published 2019):
*1 amine or outer side, *2 acyl side, *3 side chain or, on linkers, in order; H or OH if unused. Bridges are numbered along the chain shown (N, C = ends). Where no end group is shown, it is not given here. [ ]: non-standard residue; d: D form. TBMB = c1c(C[*:1])cc(C[*:3])cc1C[*:2]; NMeR = CN[C@@H](CCCNC(=N)N)C(=O)O; hArg = N=C(N)NCCCC[C@H](N)C(=O)O; Aze = O=C(O)[C@@H]1CCN1

B1: Ac-(06-550) HArg5 (peptide)
peptide: Ac-CSFPY[hArg]CVYYPDIC-NH2
modifications: linker 1-7-14 via TBMB
notes: Synthetic bicyclic peptide, 5 x 6, made on Rink amide resin
B2: Ac-(06-259-02) (peptide)
peptide: Ac-CNTWNPWCPWDAPLC-NH2
modifications: linker 1-8-15 via TBMB
notes: Synthetic bicyclic peptide without the terminal alanines, made on Rink amide resin
B3: Ac-(06-550) Aze3 HArg5 (peptide)
peptide: Ac-CSF[Aze]Y[hArg]CVYYPDIC-NH2
modifications: linker 1-7-14 via TBMB
notes: as for B1
B4: Ac-(06-550) NMe-Arg5 (peptide)
peptide: Ac-CSFPY[NMeR]CVYYPDIC-NH2
modifications: linker 1-7-14 via TBMB
notes: as for B1
B5: Ac-(06-550) Aze3 NMe-Arg5 (peptide)
peptide: Ac-CSF[Aze]Y[NMeR]CVYYPDIC-NH2
modifications: linker 1-7-14 via TBMB
notes: as for B1
B6: 06-254-01 (peptide)
peptide: ACKNYWNPCDLIETTCA-NH2
modifications: linker 2-9-16 via TBMB; N-terminus assumed
SMILES: CC[C@H](C)[C@@H]1NC(=O)[C@H](CC(C)C)NC(=O)[C@H](CC(=O)O)NC(=O)[C@@H]2CSCc3cc(cc(c3)CSC[C@@H](C(=O)N[C@@H](C)C(N)=O)NC(=O)[C@H]([C@@H](C)O)NC(=O)[C@H]([C@@H](C)O)NC(=O)[C@H](CCC(=O)O)NC1=O)CSC[C@H](NC(=O)[C@H](C)N)C(=O)N[C@@H](CCCCN)C(=O)N[C@@H](CC(N)=O)C(=O)N[C@@H](Cc1ccc(O)cc1)C(=O)N[C@@H](Cc1c[nH]c3ccccc13)C(=O)N[C@@H](CC(N)=O)C(=O)N1CCC[C@H]1C(=O)N2
notes: Synthetic bicyclic peptide, 6 x 6, made on Rink amide resin

Molecular target: T1, rat plasma kallikrein (rat, UniProt P14272 391-638)
T1 construct: domain: catalytic domain; Expressed and purified in house; also called rat kallikrein; rPK
T1 sequence (P14272 391-638 limits assumed): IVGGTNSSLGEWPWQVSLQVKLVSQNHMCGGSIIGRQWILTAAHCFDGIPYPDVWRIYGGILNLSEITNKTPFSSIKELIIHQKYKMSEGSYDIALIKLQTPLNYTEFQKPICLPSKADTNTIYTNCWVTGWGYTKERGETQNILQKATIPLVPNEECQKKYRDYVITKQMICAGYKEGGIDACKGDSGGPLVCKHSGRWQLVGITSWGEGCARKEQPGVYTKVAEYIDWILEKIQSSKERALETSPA
Assay: enzyme inhibition assay, fluorogenic substrate Z-PheArg-AMC
Method: (§1) Functional enzyme assays were conducted in 10 mM Tris HCl, 150 mM NaCl, 10 mM MgCl₂, 1 mM CaCl₂ and 1 mg/mL BSA (all Sigma UK) pH 7.4 at 25° C. in solid black 96 or 384 well plates. […] Release of AMC was measured using a Pherastar FS (BMG Labtech), excitation 360 nm, emission 460 nm. The rate of the linear phase of the reaction, typically 5 to 45 minutes, was calculated in MARS data analysis software (BMG labtech). The rate was then used to calculate the IC₅₀ and Kᵢ in Prism (GraphPad). A four parameter inhibition non-linear regression equation was used to calculate the IC₅₀. The One site-fit Kᵢ equation used to calculate the Kᵢ, constraining the Kᵢ to the Kₘ for the substrate which is 150 μM for the human enzyme, and 200 μM for the rat orthologue. All Kᵢ/IC₅₀ values are the mean of at least two independent experiments, and at least three for peptides with Kᵢ values lower than 1 nM. For rabbit kallikrein, between 7 to 14 pM enzyme was employed, with 33 μM substrate with a Kₘ of 50 μM.

Binder	Ki
B1	25 nM
B2	3.8 nM
B3	5.6 nM

Molecular target: T2, human plasma kallikrein (human, UniProt P03952 20-638)
T2 construct: Enzyme used in the Ki assays; also called human kallikrein; PK
T2 sequence (P03952 20-638 limits assumed): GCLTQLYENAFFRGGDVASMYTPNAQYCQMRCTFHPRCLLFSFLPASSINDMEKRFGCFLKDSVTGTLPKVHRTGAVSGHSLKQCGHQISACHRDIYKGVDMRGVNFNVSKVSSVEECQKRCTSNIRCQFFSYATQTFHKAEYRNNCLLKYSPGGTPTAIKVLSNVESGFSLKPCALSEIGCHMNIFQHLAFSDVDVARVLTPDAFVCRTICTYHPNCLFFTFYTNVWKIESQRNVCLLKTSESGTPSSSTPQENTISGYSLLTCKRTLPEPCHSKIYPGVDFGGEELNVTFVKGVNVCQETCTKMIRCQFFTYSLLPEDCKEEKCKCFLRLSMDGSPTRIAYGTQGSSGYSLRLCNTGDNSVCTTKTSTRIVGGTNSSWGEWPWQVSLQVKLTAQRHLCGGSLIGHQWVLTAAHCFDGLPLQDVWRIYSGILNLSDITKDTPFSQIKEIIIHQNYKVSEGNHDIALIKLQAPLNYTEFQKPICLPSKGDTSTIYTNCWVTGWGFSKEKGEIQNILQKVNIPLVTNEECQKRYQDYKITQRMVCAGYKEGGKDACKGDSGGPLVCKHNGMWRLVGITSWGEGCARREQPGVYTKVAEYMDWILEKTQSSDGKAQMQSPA
Assay: as above
Method: as §1

Binder	Ki
B1	1.8 nM
B2	5.9 nM
B4	2.66 nM
B3	0.5 nM
B5	53 nM

Molecular target: T3, biotinylated human plasma kallikrein (human, UniProt P03952 20-638, biotinylated (sites not given))
T3 construct: mature; also called biotinylated hPK; biotinylated human kallikrein
T3 sequence (P03952 20-638 limits assumed): as above
Assay: homogeneous plate-based binding assay, TBMB-cyclised phage on biotinylated human plasma kallikrein
Method: Assay of binding of individual clones: Library transformant colonies, or selection output colonies, were picked and grown as individual cultures in 2TY broth containing selective antibiotic. The picked colonies were DNA-sequenced using a QIAgen PyroMark Q96 DNA sequencer to reveal the amino-acid substitution present in each clone, and were assayed for human plasma kallikrein binding as follows. The phage-containing supernatant was harvested from the culture and phage were cyclised with tris-bromomethylbenzene (TBMB) based on the methods of Heinis et al (Nature Chemical Biology vol. 5 pp 502-507 (2009)). The purified phage from this process were assayed for binding to biotinylated human plasma kallikrein using a homogeneous plate-based binding assay; assay read-out measured on a BMG Labtech Pherastar FS plate reader. The quantitative binding data from duplicate assay samples was averaged (mean) and expressed as signal:background. Assay data shown is representative of at least 2 independent experiments. The assay data was correlated with the peptide sequences.

Binder	S:B (signal:background)
CNHWNPWCSDDPYIC (linker 1-8-15 via TBMB) [06-259-H3]	38.7
CKNYWNPCDLVQIHC (linker 1-8-15 via TBMB) [06-254-H4]	38.9
CNHWNPWCSSDPPVC (linker 1-8-15 via TBMB) [06-259-H4]	33.6
CKNYWNPCDLIRPPC (linker 1-8-15 via TBMB) [06-254-D1]	33.6
CKNYWNPCGLVYSTC (linker 1-8-15 via TBMB) [06-254-E6]	23.5
CKNYWNPCDLVHDIC (linker 1-8-15 via TBMB) [06-254-E3]	30.2
CKNYWNPCDLLESTC (linker 1-8-15 via TBMB) [06-254-E5]	29.7
CKNYWNPCDLVDTFC (linker 1-8-15 via TBMB) [06-254-A4]	32.4
CNYWNPWCSDTRIGC (linker 1-8-15 via TBMB) [06-259-A6]	22.6
CKNYWNPCDLIPTGC (linker 1-8-15 via TBMB) [06-254-G3]	37.5
CKNYWNPCDLIQDAC (linker 1-8-15 via TBMB) [06-254-F4]	46.4
CKNYWNPCDLIPGPC (linker 1-8-15 via TBMB) [06-254-02 (phage clone)]	46.6
CKNYWNPCDLLHVRC (linker 1-8-15 via TBMB) [06-254-A7]	26.1
CKNYWNPCDLISIKC (linker 1-8-15 via TBMB) [06-254-B3]	61.6
CKNYWNPCDLIAPYC (linker 1-8-15 via TBMB) [06-254-C1]	27.4
CNTWNPWCPWDAPLC (linker 1-8-15 via TBMB) [06-259-02 (phage clone)]	43.5
CNHWNPWCPADIPVC (linker 1-8-15 via TBMB) [06-259-E2]	37.7

Binder	S:B (signal:background)
CKNYWNPCDLIETTC (linker 1-8-15 via TBMB) [06-254-01 (phage clone)]	61.9
CKNYWNPCDLIWTDC (linker 1-8-15 via TBMB) [06-254-E2]	31.4
CKNYWNPCDLIPDLC (linker 1-8-15 via TBMB) [06-254-F5]	38.7
CKNYWNPCDLIPDMC (linker 1-8-15 via TBMB) [06-254-D6]	24.4
CKNYWNPCDLIADLC (linker 1-8-15 via TBMB) [06-254-H3]	25.2
CKNYWNPCDLLPDLC (linker 1-8-15 via TBMB) [06-254-B1]	9.99
CKNYWNPCDLVEAQC (linker 1-8-15 via TBMB) [06-254-G4]	33.1
CKNYWNPCDLVMDTC (linker 1-8-15 via TBMB) [06-254-03 (phage clone)]	56.7
CNTWNPWCGWVGGFC (linker 1-8-15 via TBMB, also called 06-259 (phage clone)) [06-259 (parent)]	1.17
CKNYWNPCDLIGITC (linker 1-8-15 via TBMB) [06-254-G2]	46.3
CNHWNPWCSADPPIC (linker 1-8-15 via TBMB) [06-259-03 (phage clone)]	49.8
CNHWNPWCSADPPRC (linker 1-8-15 via TBMB) [06-259-F1]	38
CKNYWNPCDLLGIAC (linker 1-8-15 via TBMB) [06-254-B9]	38
CKNYWNPCDLVTISC (linker 1-8-15 via TBMB, also called 06-254 (phage clone)) [06-254 parent]	23.5
CKNFWNPCDLIPISC (linker 1-8-15 via TBMB) [06-254-D3]	20.3
CNTWNPWCSWPDIDC (linker 1-8-15 via TBMB) [06-259-F2]	22.7
CNHWNPWCSVEPPVC (linker 1-8-15 via TBMB) [06-259-01 (phage clone)]	51.7

Molecular target: T1, rat plasma kallikrein
Assay: enzyme inhibition assay, fluorogenic substrate Z-PheArg-AMC
Remark: another data set of the same source
Method: as §1

Binder	Ki
B6	15.9 nM

Molecular target: T2, human plasma kallikrein
Assay: as above
Remark: another data set of the same source
Method: as §1

Binder	Ki
B6	1 nM
